In patent US11819552B2, “Antibody-drug conjugates targeting uPARAP” (RIGSHOSPITALET, priority 2016, dated 2023):
Entries after “also recorded” stand apart in the source; their conditions may differ.

Tests used:
[1] = target: T1, soluble truncated uPARAP protein containing the first 3 N-terminal domains of human uPARAP (Homo sapiens, UniProt Q9UBG0); experiment: ELISA analysis of uPARAP-binding of mAbs; conditions: after reduction step of conjugation, or in ADC form
T1 construct: a soluble truncated uPARAP protein containing the first 3 N-terminal domains of human uPARAP
T1 sequence (Q9UBG0 31-365): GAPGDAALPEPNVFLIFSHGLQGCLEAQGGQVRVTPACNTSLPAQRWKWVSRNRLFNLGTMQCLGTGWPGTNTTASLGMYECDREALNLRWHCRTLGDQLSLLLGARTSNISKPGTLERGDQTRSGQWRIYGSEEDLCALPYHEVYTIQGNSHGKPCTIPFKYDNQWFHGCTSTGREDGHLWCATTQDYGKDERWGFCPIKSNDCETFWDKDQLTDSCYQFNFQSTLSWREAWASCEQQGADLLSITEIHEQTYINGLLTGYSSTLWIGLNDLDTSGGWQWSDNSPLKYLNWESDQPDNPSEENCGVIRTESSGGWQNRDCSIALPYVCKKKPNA
Protocol: Untreated mAbs (2h9 or aTNP), same mAbs subjected to the reduction procedure of conjugation (see above), or ADCs 2h9-vc-MMAE or aTNP-vc-MMAE, were then employed as a primary antibody, followed by a HRP-conjugated rabbit anti-mouse Ig secondary antibody. Finally an o-phenylenediamine dihydrochloride-containing substrate solution was added, and the color reaction was stopped by adding 1M H2SO4. Plates were read at 492 nm using a plate reader.

[2] = target: T2, recombinant human (rh) Cathepsin B (Homo sapiens, UniProt P07858); experiment: Cathepsin B linker cleavage assay (reducing SDS-PAGE); type: biochemical; conditions: incubation with activated rh cathepsin B, 37° C. overnight
T2 construct: purchased
Protocol: Reducing SDS-PAGE was performed by running a 4-12% NuPAGE Bis-Tris SDS-PAGE gel, loading 5 μg of total protein per lane, reduced by boiling for 3 minutes in sample buffer in the presence of 40 mM DTT. The gels were stained using a standard 0.1% coomassie blue stain. For cathepsin B linker cleavage assay, samples were treated with recombinant human (rh) Cathepsin B according to manufacturer's instructions, using 100 ng of activated rhCathepsin B to 20 μg ADC (mAb component), in a 25 mM MES, pH 5.0 buffer, and incubation at 37° C. overnight.

[3] = tested on: CHO-K1 (receptor-negative cell line); experiment: In vitro cytotoxicity of ADCs, cell viability assay (MTS); type: cell-based; conditions: 72 hours, 4-fold dilutions from 10 μg/mL ADC
Protocol: (§1) Cells tested were seeded at low density (20-25% confluence, generally 5-10×10^3 cells per well) in a 96 well plate in 90 μL of medium, and incubated overnight. […] Cells were incubated for 72 hours, before 20 μL of CellTiter 96 AQueous One Solution Cell Proliferation Assay (MTS, Promega) was added, and incubated for an appropriate time for formation of color (usually 1 hour). The plates were then read at 490 nm, with background subtraction at 630 nm, using a plate reader.

HT1080 cells [4] = experiment: as above; type: cell-based; conditions: 72 hours, 4-fold dilutions from 10 μg/mL ADC, vs aTNP-vc-MMAE
Protocol: as §1

KNS42 cells [5] = experiment: as above; type: cell-based; conditions: 72 hours, 4-fold dilutions from 10 μg/mL ADC, vs aTNP-vc-MMAE
Protocol: as §1

THP-1 cells [6] = experiment: as above; type: cell-based; conditions: 72 hours, 4-fold dilutions from 10 μg/mL ADC, vs aTNP-vc-MMAE
Protocol: as §1

U937 cells [7] = experiment: as above; type: cell-based; conditions: 72 hours, 4-fold dilutions from 10 μg/mL ADC (mAb component), vs aTNP-vc-MMAE
Protocol: as §1

HT1080 cells [8] = experiment: Cell cycle distribution analysis; type: cell-based; conditions: 3-day incubation, 1 μg/mL ADC
Protocol: (§2) Cell cycle analysis was performed using a Nucleocounter NC-3000 system (ChemoMetec Denmark), using the manufacturers standard protocol for analyzing the cell cycle distribution of a population of cells, based on the DNA content of each cell. The percentage of cells in Sub-G1, G1, S, or G2/M-phases of the cell cycle was established from histogram analysis using the NucleoView NC-3000 software.

KNS42 cells [9] = experiment: Cell cycle distribution analysis; type: cell-based; conditions: 3-day incubation, 1 μg/mL ADC
Protocol: as §2

THP-1 cells [10] = experiment: Cell cycle distribution analysis; type: cell-based; conditions: 3-day incubation, 1 μg/mL ADC
Protocol: as §2

U937 cells [11] = experiment: Cell cycle distribution analysis; type: cell-based; conditions: 3-day incubation, 1 μg/mL ADC
Protocol: as §2

U937 xenograft tumour [12] = experiment: Subcutaneous uPARAP-positive U937 xenograft tumour model, treatment by s.c. injection; type: in vivo, CB17 SCID mice
Protocol: (§3) All animal experiments were performed under legal approval from The Danish Veterinary and Food Administration. All reagents and cell lines used for animal experiments were tested negative for the presence of murine viruses, bacteria, mycoplasma and fungi. Animals received standard of care, and were sacrificed upon any of the following signs: loss of more than 10% of body weight, visible distress or illness, compromised food—or water intake or defecation, signs of severe inflammation in the vicinity of tumours, or tumour growth which exceeded a volume of 1000 mm^3 or compromised the free movement of the animals. Tumour growth was measured using electronic calipers, and tumour volumes were calculated using the formula Volume=(LxW^2)/2, with L being the longest dimension of the tumour, and W being the width in the perpendicular dimension.
For tumour establishment, mice were shaved at the flank, and received a subcutaneous injection of 1×10^6 U937 cells, and then closely monitored in order to observe the development of solid tumours. […] All treatments were given as a total of 4 subcutaneous doses of 3 mg/kg mAb component in the tumour area, at 4 days intervals. Injections were performed under brief isoflurane anesthesia to avoid risks for the animal handler. During treatment, the tumours were evaluated every two days, until reaching a point of sacrifice. Mice which fully lost any tumour burden were checked two times a week for a period of 3 months after ending treatment.

U937 xenograft tumour [13] = experiment: Subcutaneous uPARAP-positive U937 xenograft tumour model, treatment by intravenous injection; type: in vivo, CB17 SCID mice
Protocol: as §3
For tumour establishment, mice were shaved at the flank, and received a subcutaneous injection of 1×10^6 U937 cells, and then closely monitored in order to observe the development of solid tumours. […] All treatments were given as a total of 3 intravenous doses of 5 mg/kg mAb component in the tail veins of the mice, at 4 days intervals. During treatment, the tumours were evaluated every two days, until reaching a point of sacrifice. Mice which fully lost any tumour burden were checked two times a week for a period of 3 months after ending treatment.

[14] = tested on: human glioblastoma explant cells; experiment: In vitro cell viability assay on glioblastoma explant cells; conditions: as FIG. 5 assay; vs aTNP-based control ADCs
Protocol: as §1
The ADCs 2h9-vc-MMAE and 2h9-vc-MMAF were tested by in vitro cell viability assays, performed as described in Example 1, for their capacity to specifically kill human glioblastoma explant cells. Glioblastoma explant cells are e.g. described in Staberg et al., 2017, Cell Oncol. 40: 21-32.

[15] = s.c., 3 mg/kg, 4 doses, of the 10 mice treated

B1: 2h9-vc-MMAE: uPARAP-directed ADC: mAb 2h9 conjugated to MC-VC-PAB-MMAE (Vedotin) linker-toxin (conjugate)
light: DIQMTQSPASQSASLGESVTITCLASQTIGTWLAWYQQKPGKSPQLLIYAATTLTDGVPSRFSGAGSGTKFSLKISSLQAEDFASYFCQEFFSTPFTFGSGTKLELKRADAAPTVSIFPPSSEQLTSGGASVVCFLNNFYPKDINVKWKIDGGERQNGVLNSWTDQDSKDSTYSMSSTLTLTKDEYERHNSYTCEATHKTSTSPIVKSFNRNEC
heavy: QVQLQQPGTELVRPGLSVKLSCKASGYTFTSYWMNWVKQRPGQGLEWIGMIHPSNDEKRINQKFKDKATLTVDKFSSTVYMQVSSPTSEDSAVYYCARGGGDYVGDYALDFWGQGTSVTVSSAKTTPPSVYPLAPGSAAQTNSMVTLGCLVKGYFPEPVTVTWNSGSLSSGVHTFPAVLQSDLYTLSSSVTVPSSTWPSETVTCNVAHPASSTKVDKKIVPRDCGCKPCICTVPEVSSVFIFPPKPKDVLTITLTPKVTCVVVDISKDDPEVQFSWFVDDVEVHTAQTQPREEQFNSTFRSVSELPIMHQDWLNGKEFKCRVNSAAFPAPIEKTISKTKGRPKAPQVYTIPPPKEQMAKDKVSLTCMITDFFPEDITVEWQWNGQPAENYKNTQPIMDTDGSYFIYSKLNVQKSNWEAGNTFTCSVLHEGLHNHHTEKSLSHSPGK
[1]
  Affinity towards uPARAP following conjugation procedure: retained affinity
[2]
  Linker cleavage by cathepsin B (gel mobility): reverts ADC gel mobility back to that of unmodified targeting antibody
[3]
  Overall cell viability: remains unaffected
HT1080 cells [4]
  Overall cell viability: specific reduction in overall viability
KNS42 cells [5]
  Overall cell viability: specific reduction in overall viability
THP-1 cells [6]
  Overall cell viability: specific reduction in overall viability
U937 cells [7]
  Overall cell viability: most sensitive cell line tested; also recorded: specific reduction in overall cell viability
HT1080 cells [8]
  Cell cycle distribution: shift in cell cycle distribution towards the Sub-G1 and G2/M phases
KNS42 cells [9]
  Cell cycle distribution: shift in cell cycle distribution towards the Sub-G1 and G2/M phases
THP-1 cells [10]
  Cell cycle distribution: shift in cell cycle distribution towards the Sub-G1 and G2/M phases
U937 cells [11]
  Cell cycle distribution: shift in cell cycle distribution towards the Sub-G1 and G2/M phases
U937 xenograft tumour [12]; s.c. near the tumour, 3 mg/kg mAb component, 4 doses every 4 days
  Tumour growth: drastic decrease in tumour growth
U937 xenograft tumour [12]; s.c., 3 mg/kg mAb component, 4 doses every 4 days, N=10
  Permanent cure rate: 50%
U937 xenograft tumour [12]; [15]
  Mice free from tumour growth for a period of 90 days: 5 mice
  Mice with almost immediate relapse of tumour growth following treatment: 5 mice
U937 xenograft tumour [13]; i.v. tail vein, 5 mg/kg mAb component, 3 doses every 4 days, all 10 mice
  Tumour burden: complete abrogation of the tumour burden
U937 xenograft tumour [13]; i.v., 5 mg/kg mAb component, 3 doses every 4 days, N=10
  Permanent cure rate: 100%
U937 xenograft tumour [13]; regular inspection of the treated mice, antibody cross-reactive with murine uPARAP
  Adverse / detrimental effects on treated mice: without any evident adverse effects; also recorded: no signs of detrimental effects were seen
[14]
  Cell viability / sensitivity of glioblastoma explant cells: very strong and specific sensitivity; also recorded: high degree of specific sensitivity
